Measurements from article PMC6698748.

What was measured:
[1] = target: MtsR F187A (Streptococcus pyogenes (group A streptococcus), strain MGAS10870, serotype M3); experiment: SEC
[2] = target: MtsR (wild type, recombinant, untagged) (Streptococcus pyogenes (group A streptococcus), strain MGAS10870, serotype M3); experiment: SEC

| Substance | stoichiometry N [1] | stoichiometry N [2] |
| --- | --- | --- |
| MtsR F187A (natural protein) | 2 |  |
| MtsR (wild type, recombinant, untagged) (natural protein) |  | 2 |
